Assay results published in the nanobody polyreactivity screen of Harvey et al. (2022).

assay: yeast display, Sf9 membrane polyspecificity reagent, FACS + sequencing; frameworks hold sequencing errors
In short: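 A nanobody's polyreactivity label depends on the gate it was sorted from. Yeast display cells were stained with 10% biotinylated, detergent-solubilized Sf9 membrane reagent for 1 hour at 4 °C, enriched on streptavidin microbeads and sorted by FACS. The low and high (top ~1%) gates were set on anti-HA fluorescence for expression and streptavidin fluorescence for reagent binding.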

Row | Sequence | polyreactivity (PSR sort gate)
1 | QVQLVESGGGLVQAGGSLRLSCAASGRTFGPYAMGWYRQAPGKERELVAAITSSGGSTYYADSVKGRFTISRDNAKNTVYLQMNSLKPEDTAVYYCNKLYWRQSQDYDYWGQGTQVTVSS | low polyreactivity
2 | QVQLVESGGGLVQAGGSLRLSCAASGRTFGPYAMGWYRQAPGKERELVAVISKSGTRTYYADSVKGRFTISRDNAKNTVYLQMNSLKPEETAVYYCAARSPYSYRYDYWGQGTQVTVSS | high polyreactivity
3 | QVQLVESGGGLVQAGGSLRLSCAASGRTFGPYEMGWYTQAPGKERELVASISSADSTYYADSVKGRFTISRDNAKNTVYLQMYSLKPEDTAVYYCAAPSVGYYDPTDFDYWGQGTQVTVSS | low polyreactivity
4 | QVQLVESGGGLVQAGGSLRLSCAASGRTFGQNAMGWYRQAPGKERELVAAISSGGSTYYADSVKGRFTISRDNAKNTVYLQMNSLKPEDTAVYYCAVSSWDRGYWYYYWGQGTQVTVSS | high polyreactivity
5 | QVQLVESGGGLVQAGGSLRLSCAASGRTFGQNAMGWYRQAPGKERELVASIRSGGITDYADSVKGRFTISRDNAKNTVYLQMNSLKPEDTAVYYCNAEGVWWSTRYDSWGQGTQVTVSS | low polyreactivity
6 | QVQLVESGGGLVQAGGSLRLSCAASGRTFGQNAMGWYRQAPGKERELVASIRSGGITDYADSVKGRFTISRDNAKNTVYLQMNSLKPEDTAVYYCNDEGVWWSTRYDSWGQGTQVTVSS | low polyreactivity
7 | QVQLVESGGGLVQAGGSLRLSCAASGRTFGRNAMGWYRQAPGKERELVAAISYGGGSTYYADSVKGRFTISRDNAKNTVYLQMNSLKPEDTAVYYCAAPTDDSSLGVYKHGYWGQCTQVTVSS | low polyreactivity
8 | QVQLVESGGGLVQAGGSLRLSCAASGRTFGRYAMGWYRQAPGKAREFVAAISSSGGSTSYADSVKGRFTISRDNAKNTVYLQMNSLKPEDTAVYYCNADAYRITRYGYDYWGQGTQVTVSS | high polyreactivity
9 | QVQLVESGGGLVQAGGSLRLSCAASGRTFGRYAMGWYRQAPGKERDLVATITSGGSTNYADSVKGRFTISRDNAKNTVYLQMNSLKPVDTAVYYCAAEFSPSRWAYSEGALRYNYWGHGTQVTVSS | low polyreactivity
10 | QVQLVESGGGLVQAGGSLRLSCAASGRTFGRYAMGWYRQAPGKERELVAAINRGGSTKYADSVKGRFTISRDNAKNTVYLQMNSLKPEDTAVYYCAKDRHPALHYDYWGQGTQVTVSS | low polyreactivity
11 | QVQLVESGGGLVQAGGSLRLSCAASGRTFGRYAMGWYRQAPGKERELVAAITRGGGSTYYADSVKGRFTISRDNAKYTVYLQMNSLKPEDTAVYYCAARNFRSPYGYDYWGQGTQVTVSS | high polyreactivity
12 | QVQLVESGGGLVQAGGSLRLSCAASGRTFGRYTMGWYIQAPGKERELGASISNTARTNYADSVKGRFTISRDNAKNTVYLQMNSLKPEDTAVYYCAAGFVRYRGTRDYWGQGTQVTVSS | low polyreactivity
13 | QVQLVESGGGLVQAGGSLRLSCAASGRTFGRYTMGWYRQAPGKERELVADITSGWSTYADSVKGRFTISRDNAKNSVYLQMNSLKPEDTAVYYCNADRTYPEPAEYYYWGQGTQVTVSS | low polyreactivity
14 | QVQLVESGGGLVQAGGSLRLSCAASGRTFGSNAMGWYRQAPGKERELVAAITRRGGSTYYADSVKGRFTISRDNAMNTVYLQMNSLKPEDTAVYYCATDPVSTRGSDYWGQGTQVTVSS | low polyreactivity
15 | QVQLVESGGGLVQAGGSLRLSCAASGRTFGSNAMGWYRQAPGKERELVAVITTSGGSTYYADSVKGRFTISRDNAKNTVYLQMNSLKPEDTAVYYCNKVGWYHNYYYWGQGTQVTVSS | high polyreactivity
16 | QVQLVESGGGLVQAGGSLRLSCAASGRTFGSYAMGWYRQAPGKERELVAAISKGGGSTYYADSVKGRFTISRDNAKNTVYLQMNSLKPEDTAVYYCAKRRFEYYYYWGQGTQVTVSS | high polyreactivity
17 | QVQLVESGGGLVQAGGSLRLSCAASGRTFGTKTMGWYRQAPGKERELVAGISRSGGRTYYADSVKGRFTISRDNAKNTVYLQMNSLKPEDTAVYYCAAVSYYQPLRRIMDYWGQGTQVTVSS | high polyreactivity
18 | QVQLVESGGGLVQAGGSLRLSCAASGRTFGTNAMGWYRQAPGKERELVAAISRRGGSTYYADSVKGRFTISRDNAKNTVYLQMNSLKPEDTAVYYCNVVTKFTGRGYDYWGQGTQVTVSS | high polyreactivity
19 | QVQLVESGGGLVQAGGSLRLSCAASGRTFGTYAIVWYRPAPGKERELVAAITRRGGSTYYADSVKGRFTISRDNAKNTVYLQMNSLKPEDTAVYYCAARWFRYVPYSFPYLYKYDYWGQGTQVTVSS | low polyreactivity
20 | QVQLVESGGGLVQAGGSLRLSCAASGRTFGTYAMGWYRQAPGKERELVAAISRRGGTTYYADSVKGRFTISRDNAKNTVYLQMNSLKPEDTAVYYCARASWSITTVLSTMDYWGQGTQVTVSS | high polyreactivity
21 | QVQLVESGGGLVQAGGSLRLSCAASGRTFGTYAMGWYRQAPGKERELVAAISRRGGTTYYADSVKGRFTISRDNAKNTVYLQMNSLKPEDTAVYYCNVYRVSFSVVPLGYWGQGTQVTVSS | high polyreactivity

Row | Sequence | polyreactivity (PSR sort gate)
22 | QVQLVESGGGLVQAGGSLRLSCAASGRTFGTYAMGWYRQAPGKERELVASITSGDSTNYADSVKGRFTISRDNAKNTVYLQMNSLKPEDTAVYYCNADIEFYVLFAYWGQGTQVTVSS | low polyreactivity
23 | QVQLVESGGGLVQAGGSLRLSCAASGRTFGVNAMGWYRQAPGKERELVAAISYSGASTFYADSVKGRFTISRDNAKNTVYLQMNSLKPEDTAVYYCDARGYYGGFYYWGQGTQVTVSS | high polyreactivity
24 | QVQLVESGGGLVQAGGSLRLSCAASGRTFGVYMGWYRQAPGKERELVAVISSGDSTNYADSVKGRFTISRDNAKNTVYLQMNSLKPEDTAVYYCNAYGSDRLTLDDYWGQGTQVSVSS | low polyreactivity
25 | QVQLVESGGGLVQAGGSLRLSCAASGRTFGVYVMGWYRHAPGKERELVAFITISGGSTNYADSVKGRFTISRDNAKNTVYLQMNSLKPDDTAVYYCAARTYYGYDYWGQGNQVTVSS | high polyreactivity
26 | QVQLVESGGGLVQAGGSLRLSCAASGRTFGWNGMGWYRQAPGKERELVAVISSGGSTKYADSVKGRFTISRDNAKNTVYLQMNSLKPEDTAVYYCAKDWVRSGRRKMDYWGQGTQVTVSS | low polyreactivity
27 | QVQLVESGGGLVQAGGSLRLSCAASGRTFGWYAMGWYRQAPGKERELVAAINNSGDITYYADSVKGRFTISRDNAKNTVYVQMNSLKPEDTAVYYCAATAGYYGYPSEYDYWGQGTQVTVSS | low polyreactivity
28 | QVQLVESGGGLVQAGGSLRLSCAASGRTFGWYSMGWYRQAPGKERELVAAINNSVDITYYSDSVKGRFTISRDNAKNSVYLQMNSLKPEDTAVYYCNRDARSGFVTIYATDYDYWGQGTQVTVSS | low polyreactivity
29 | QVQLVESGGGLVQAGGSLRLSCAASGRTFGYNAMGWYRQAPGKERELVAAISRGDSTNYADSVKGRFTISRDNAKNTVYLQMNSLKPEDTAVYYCAAAFPRYRSRAIRVDYWGQGTQVTVSS | high polyreactivity
30 | QVQLVESGGGLVQAGGSLRLSCAASGRTFGYNAMGWYRQAPGKERELVAAITWSGGSTYYADSVKGRFTISRDNAKNTVYLQMNSLKPEDTAVYYCNAYQRLSRAYGYWGQGTQVTVSS | high polyreactivity
31 | QVQLVESGGGLVQAGGSLRLSCAASGRTFGYNGKGWYRQAPGKERELVAAINSGGNTNYAESVKGRFTISRDNAKNTVYLQMNSLKPEDTAVYYCAKYGTLYEPVPNEYDNWGQGTQVTVSS | low polyreactivity
32 | QVQLVESGGGLVQAGGSLRLSCAASGRTFGYYAMGGYRQAPGKERELVAGIRSSGGSTYYADSVKGRFTISRDHAKNTVYLKMNSLIPEDTAVYYCAARLRSYHYRYGYDYWGQGTQVTVSS | high polyreactivity
33 | QVQLVESGGGLVQAGGSLRLSCAASGRTFGYYAMGWYIQAPGKERELVAAISGSGGSTYYADSVKGRFTISRDNAKNTVYLQMNSLKPEDTEVYYCAARYIYYYAFGYNYWGQGTQVTVSS | high polyreactivity
34 | QVQLVESGGGLVQAGGSLRLSCAASGRTFGYYAMGWYRQAPGKERELVAAISKSGGRTYYADSVKGRFTISRDNAKNTVYLQMNSLKPEDTAVYYCAADGGAIVPYYENYYWGQGTQVTVSS | high polyreactivity
35 | QVQLVESGGGLVQAGGSLRLSCAASGRTFGYYAMGWYRQAPGKERELVASISSSGGNTYYADSVKGRFTISRDNAKNTVYLQMNSLKPEDTAVYYCAATYGWWPRDYYYWGQGTQVTVSS | high polyreactivity
36 | QVQLVESGGGLVQAGGSLRLSCAASGRTFGYYAMGWYRQAPGKERELVATITSRGGDTSYADSVKGRFTISRDNAKNTVYLQMKSLKPEDTAVYYCAADRFQGRDDYWGQGTQVTVSS | high polyreactivity
37 | QVQLVESGGGLVQAGGSLRLSCAASGRTFGYYAMGWYRQAPGKERELVATITWSGGSTYYADSVKGRFTISRDNAKNTVYLQMNSLKPEDTAVYYCATGQYGYWYGTENDYWGQGTQVTVSS | low polyreactivity
38 | QVQLVESGGGLVQAGGSLRLSCAASGRTFGYYAMGWYRQAPGNERELVASISQSGGRTYYADSVKGRFTISRDNAKNTVYLQMNSLKPVDTAVYLCNAVYYRRTGYEYWGQGSQVTVSS | high polyreactivity
39 | QVQLVESGGGLVQAGGSLRLSCAASGRTFGYYARGWYRQAPGKERELVADISSGGSTSYADSVKGRFTISRDNAKNTVYLQMNSLKPEDTAVYYCAADSHQNFSGWLRWPRMDYWGQGSQVTVSS | low polyreactivity
40 | QVQLVESGGGLVQAGGSLRLSCAASGRTFGYYGLGWYRQAPGKERELVASINFSSGSTFYADSVKGRFTISRDNAKNTVYLQMNSLKPEDTAVYYCAARTDVGWYSRYGYWGQGTQVTVSS | low polyreactivity
41 | QVQLVESGGGLVQAGGSLRLSCAASGRTFHFDAMGWYRQAPGKERELVASITWSAVRTYYADSVKGRFTISRDNAKYTVYLQMNSLKQEDTAVYYCAIDWDYRLMDYWGQGTQVTVSS | low polyreactivity
